# Laboratory results: publication PMC4303316 (Biochemistry, 2014)
# No end group written: not given here.
# T1: EhPAK4 PBD, tag removed (crystallographic construct) (Entamoeba histolytica (strain HM-1:IMSS), UniProt C4LSU1 12-78)
# T1 sequence (looked up): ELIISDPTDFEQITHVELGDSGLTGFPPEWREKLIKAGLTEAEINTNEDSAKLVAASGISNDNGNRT
# B1: His6-EhPAK4 PBD (p21 binding domain of Entamoeba histolytica p21-activated kinase 4) (domain or fragment, Entamoeba histolytica (strain HM-1:IMSS), UniProt C4LSU1 12-78, looked up)
# chain: T1 sequence (looked up)
# B2: His6-EhPAK5 PBD (p21 binding domain of Entamoeba histolytica p21-activated kinase 5) (domain or fragment, Entamoeba histolytica (strain HM-1:IMSS), UniProt C4MBQ2 105-161, looked up)
# chain: His6-DISEPTDYHHLTHVAYEEGGFVGIPYEWENVFLACGITREEIKSNKEDAIKVLEFTQ
# B3: EhRacC^Q65L (GTPase-deficient EhRacC mutant, GTP-bound) (enzyme, Entamoeba histolytica (strain HM-1:IMSS), UniProt Q24816 1-182, looked up)
# chain: MSEKPTSIKLVVVGDGAVGKTCLLISYSIRKFPEDYIPTVFDNYVVSLTAGTRQIQLALWDTAGLEEYDQLRPLSYSSASIFLICFSVTSSVSYDNVITKWHPEVIHFAPKVPIILVGTKLDTRNDPAIVKRLTEQGMTVINTAKGEELKNRIKAVKYIECSAKTSENLKTVFDEAVKTVLM
# Columns and labels:
# [1] = target: B3; experiment: SPR
# [2] = target: T1, EhPAK4 PBD, tag removed …; experiment: SEC
Binder,Kd [1] [nM],stoichiometry N [2]
B1,170 ± 30,
B2,1900 ± 200,
B3,,1 EhRacC:EhPAK4
